Source: the domain aggregation screens of Martell et al. (2025)

assay: soluble fraction after stress (log2 fold change); higher = more stays soluble; pooled small domains, quantitative proteomics; settings: stress: 50 degC
Outline: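 After stress at 50°C, the amount of each protein still soluble was measured. This was done on pooled custom libraries of small protein domains, using high-throughput quantitative proteomics. The figure given is a base-two log fold change and stands for aggregation propensity, with higher values meaning more protein stays in solution.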

| Sequence | soluble fraction (log2) |
| --- | --- |
| HMSVPEDLYFRELEVEGNKVRISGIASTNNRVSALMRNFDQSEWFRDPSLIKVESKSPGVNEFEIVMTRI | 0.0509 |
| HMEWTVEKQAAATLNAWMRKNSEMTSEKKVAVAAGIGPATVNRIMKAEVSTTIGVLSSLARAFGHEAYEMI | -0.276 |
| HMSVTVPDVKRMQAEDAKALLSRYRLRSEVIDSVYVDNIPRGAVVEQIPRENSSVKENRIVFLTINSN | -0.363 |
| HMERNAEDFAAKYQEIYQDMFRFALYTLKNRQEAEDVVSETVLDAWKGIEGLKNESAFSAWMFRILVNK | 0.152 |
| HMKRNLESVLDHIEGIGPKRRKALYKHFGNLDAMRVAELEELESVEGMNKKAALAVYEFFRRNS | 0.254 |
| HMNENDPRVIKTRRLLLDSFVVLVRKKDFTSISVKDITDSAQVNRATFYAHFQDKYDILEYMVID | 0.112 |
| HMPPAPGHDLTEREREVLRLLVEGLSNQEISDRLVISQSTVKNHVSSVLSKLDAANRAEAVALALKNQL | 0.00346 |
| HMDRIISTPMPGRVVKIPVTEGEPVAKGATVITISAMKMESEYKSPIDGIVKKIHVSEGDNINANQPLIEI | -0.178 |
| HMDMNVQNYRGLSLDRAKKLISDLGLKYEVVGTGDSVVKQVPSSGSRMSKENGRIILYTENVEDA | 0.00608 |
| HMQQNYREMHKVKKGETLFGIARRYEITVDQLIKANPDMNAVGYELKKGDYIFIPYPDGQKP | -0.13 |
| HMKITLAESVYERIRRDIITNQLKPGEKINIRELSTRYEASETPIRLALNRLASENIIEHFPRQGMRVK | -0.371 |
| HMREVTVGSAVRLKKGAKTYSGGSLASFVYERNHQVTQLSGDRAVISFKGTVVAAVHKDDLIL | -0.916 |
| HMGEIVVPDLIGKSLTEATRILSDSTLTVGKVNYQISSTLLPNTVLDQYPAPGNKLNSGNTVDLFITKE | -0.0436 |
| HMSYYKEMIRLADSIADKAHEGQTDRNGWPYISHPRRVALGARKLVSEMASSTSPDTSLEELKAEVQIVAL | -0.288 |
| HMTVKNFNDLPGFKNENLAELKAMGITTISELAEALNDGGKIKEIIKNLSGVGPKTAEKWKDAIG | ≥ 0.62 |
| HMSQRINLNSASIEDMQSLDISNEKIDSIIDYRNRYGNIHNIYELLKIPGITIGDIHSIRNAVTVEIPH | -0.112 |
| HMKEEVEILGGKATIYTNDYGVWQFRLWLTTDNKYVRKSLRTKVKDYAITEGEKLYIQIRSDIEKGIKYY | -1.13 |
| HMGYQLSLEAQSQLKALGLTSEYITRILDEADNRQPIPGTSRTVYSLNGYQVEFSHSDQQVIRIARG | 0.0139 |
| HMEVPQKTLEILEPWRGRKGFLIPVLQAVQHEFGYVPKEAIETVSREMKMPTAEIYGVVTFYAQFH | -0.493 |
| HMEKSLKELAQGVGQKVLTSGRPYHFDPMSAMERRVVHMTLMEMDGLRTESEGEGRFRHVVVFPA | -0.184 |
| HMIINFDAIRLTTELNKYNRHKAIPNSFFDGTFTILDVRDLYDSLSPKVQKIADTLIEQYNVDVKQ | -1.85 |
| HMLTANPEEVVNRLTSAGEVGVRPLLDVDDPINAISTLLAIREDVYKQFAQFDTVGKSPSEIAHEIDDFL | 0.00575 |
| HMFDDLSTNLRDLAHNYIEKYSPSKQQLKVFLLKKYLMKFKGSKTKKEISEIIDKIISNLEENKYLNDEL | 0.0632 |
| HMNDIVKIYTTHRIINIEGLAKNEPIMLYTINGTLIDKSVSSNGSAQLHVKGIGVYLVKWANNIVKVIVPN | -2.42 |
| HMKDNPNETFERIAGKITRTLRSGPVRIQQLDLLFSESAGKVVDVLRAMAENGEVLIKDDTIQLNGNN | 0.0379 |
| HMQRDTIAISAIPTAIKTYLSSTYPTDTLVHAFVNKDQSIVVISKNIDFYATSFSTANAFIKRIQLPA | -1.03 |
| HMKLPNSFGSIQKLSGNRRKPYRVVKTIGWDENGKQIRKTLGYYETRAKALQELALFNEKPYD | -0.804 |
| HMNKEDIASNEKLLGLLNHMSKVLKDIDFIKDDRPMIVRKINHIFKKATLSEEEINILRGVLSAIENHS | -0.479 |

| Sequence | soluble fraction (log2) |
| --- | --- |
| HMDIVLPFSFAKRHGVVLSERQGETELLYLKGLPVRVLAEARRVLRQEFTVRQVEQAVFDKALSESYQN | -1.04 |
| HMNVPLYIMIESAVEQRLLDGTYQVGKMIPTEFELMDEFSVSRETVRKAINLLVQRGKLEKKRGIGTFVAS | -2.92 |
| HMEHVVFEVTESGELENNTAVKHVLNSFNNKSLNLAIDDFGTGYSNLRYIRDMMFGIIKIDRLFIKDINES | -0.018 |
| HMGTAEDYLLPRRAEILSIIRDHEFANFDLIRRRFLAVNERTLRYDLKKLSDLGLIKKLGKTRGVYYRAAK | -1.49 |
| HMHSVIALTIPADYAGLRLDQALAKLLPNWSRSRLQTWIAENRVILDGQITTIKQKVWGNELIQISPQD | -1.45 |
| HMENNIRLSVPDTESGQRIDSYLAEQIPGLTRSAVQNLLAEQAVTIAGKAVKKNYKLLGGEDILVQLPEVR | 0.216 |
| HMDDNMNEQWKMILNSIAKKGSVTRQETEKILGIGQTRAHVLLKAMIHAGMIKAVGDGKKRRYVR | -1.01 |
| HMDRKFFYEDQYQDYLGEELKVSFFDTDNKKTVRGTLSEVTPHGIKINLEQETQEIPFSSIIQANLI | 0.201 |
| HMLPRNKRIEIALTYIYGLGRHAATVVLKHANISPDKRTDDLDENDVRKLRDAIDANFRVEGDLRR | -0.0528 |
| HMNLDPIKRKSEILSLFESHKNVKFNEIFFEKVNKEFTVLTFLIILELVKDNIIDFSQTQEGLIEFFTR | -0.115 |
| HMADKSLLELPGLDGDKVSALVTAGVRNVNDLADLATDELVEKTGFDEKTAADLIIAARAVVY | 0.331 |
| HMNSNTIIFSQFLSEVDNGRVTQVQIQGNNIKGTLSNGKDFITYAPNDPNLIEKLTSKGVSISASPID | 0.0608 |
| HMEYYWHQLKGLEVVNTRGESLGRVRRLLETGANDVLVLEGEQERLIPYVPDTIKQVDLAKGLIEVAWDRD | -0.0728 |
| HMEMLQENIRNLRKAKGWSQEELAIKLNVVRQTVSKWEKGLSVPDSQMLIRIADELDTTVAILLG | -0.246 |
| HMNINVRNTGIKAVENNIINLSSDQRTFTWASNDRKLITVPFDENPYSALAAWFKTDEGIEVYQTIEKKL | -0.115 |
| HMSADKAEAAEASLKSFNLRLQAAAMEAGKTFAPVTADQYAEYKAAWGTYIRKGIEGLSESEKKTINVG | -0.03 |
| HMSFSSLSNDILSEIQKDNNITYDELSEKLQKDRATIYRNMKKLVENGLLKRVGGRKSGHWEIIE | 0.189 |
| HMYMKTITEQFGERLKKIRTQKSLSQEQLSYLADIDRSYISDVERGARNISLENIYKLASALNIPPYLVLL | -0.273 |
| HMSWEDSLLKQAREIIDMYPQKRSAVGPLLHLAQSKDGYISDDSISVISKLVGITEVQLKSVSTFYSMYK | -1.59 |
| HMKYNGDRPVFNDDVAWAKWMLENPAKITSHDKENLSSMLKKPEVVMLFEAEDLSVPDLRTLAKE | 0.236 |
| HMDATIGGFKITDSAIYSGVKNNVNAGVRGTYIDKDGQIAFGDSNSYLKYYKDTDGKWKLEVSASSVKF | 0.139 |
| HMAQRFDLGDKLNPQSSEFEYLGTSSRTGVSTYRYKNVPTQLFFGRQIGDIVVGVRRGMITLTIYNL | -0.0451 |
| HMLRNDEAVMLGRRLLNKHLQAFSVQIKDISHQRIHDLLDELELESLDHLLDDIGLGNRSVFLVAQKLLQ | -1.39 |
| HMTIRPEDVELVPAEDGYMQGDVVSNIFKGVHYELEVKANGYDWMVHTTKYVEVGSHVGIKVIPFNIQV | -0.0208 |
| HMFSIDRNIRRLRKEAGLTQEELAQKLFVTRQTISLWELGKVHPDLETLQKLAEQFQVDLLQVLYGPE | -2.17 |
| HMGERMELTLDNPREAIPVLDAMGFANYQVVDKEHIHIFERLNESALVNMELAKAGIPVKGISITSE | 0.018 |
| HMHHIDTAWFRGKMREHRLTQEAVGQAIGLERSMVSKIIKGTVSFNARKASAWAQLLRVSESEILERVGI | -2.37 |
